Data on one protein can be found in FireProtDB (doi:10.1111/j.1432-1033.1996.00516.x).

The conditions of this series: Aspergillus oryzae (strain ATCC 42149 / RIB 40), GdnHCl, Fluorescence, reversible: yes, whole UniProt chain shown.
Setting [1] is: pH 5, 10 °C, Sodium acetate 0.1 M.
[2] abbreviates: pH 5, 25 °C, Sodium acetate 0.1 M.

B1: Guanyl-specific ribonuclease T1 wild type, P00651 (protein)
chain: MMYSKLLTLTTLLLPTALALPSLVERACDYTCGSNCYSSSDVSTAQAAGYQLHEDGETVGSNSYPHKYNNYEGFDFSVSSPYYEWPILSSGDVYSGGSPGADRVVFNENNQLAGVITHTGASGNNFVECT
Turning to B1, the denaturant m value stood at 2.49 kcal/mol/M under setting [1]; 2.75 kcal/mol/M under setting [2]; 2.63 kcal/mol/M (pH 8, 10 °C, PIPES 0.1 M); 2.46 kcal/mol/M (pH 8, 25 °C, PIPES 0.1 M). For the same protein, the “denaturant midpoint (higher = more stable)” value reads like this: under setting [1], 3.94 M; under setting [2], 3.63 M; (pH 8, 10 °C, PIPES 0.1 M) 3.21 M; (pH 8, 25 °C, PIPES 0.1 M) 2.4 M.
